Reference: patent publication CN113683686A (INST PASTEUR SHANGHAI CAS, dated 2021)

B1: 单抗2H2 (anti-SARS-CoV-2 RBD mouse monoclonal antibody 2H2) (antibody, V domains shown)
VH: QVQLKQSGPSLVQPSQSLSITCTVSGFSLTSYGVHWVRQSPGKGLEWLGVMWRGGNTDYNAAFMSRLSITKDNSKSQVFFKMNSLQTDDTAIYYCAKNGGAHAMDFWGQGTSVTVSS
VL: NIVLTQSPASLAVSLGQRATISCRASESVDSYGNSFLHWYQQKPGQPPKLLIYLASNLESGVPARFSGSGSRTDFTLTIDPVEADDAATYYCQQNNEDPFTFGSGTKLEIK
B2: 单抗3C1 (anti-SARS-CoV-2 RBD mouse monoclonal antibody 3C1) (antibody, V domains shown)
VH: EVQLQESGPSLVKPSQTLSLTCSVTGDSITNGYWNWIRKFPGNKLEYMGYISYSGSTYYSPSLKSRISITRDTSKNQHYLQLNSVTSEDTATYYCASDYHGSKYYFDYWGQGTTLTVSS
VL: DIVMTQSHKFMSTSVGHRVSITCKASQDVGNDVAWYQQKPGQSPKLLIYWASTRHTGVPDRFTGSGSGTDFTLTISNVQSEDLADYFCQQYNRYPYTFGGGTKLEIK

Tests used:
[1] = molecular target: 重组的SARS-CoV-2 RBD蛋白 (S蛋白320-550位残基, 组氨酸标签) (SARS-CoV-2, UniProt P0DTC2 320-550); assay: BLI (Octet RED96), His-tagged RBD on Ni-NTA sensor, antibody in solution
[2] = molecular target: SARS-CoV-2 S蛋白 (on MLV-based SARS-CoV-2 pseudovirus) (SARS-CoV-2, UniProt P0DTC2 14-1273); assay: cell-based or functional assay

Binder | Kd [1] [nM] | 半数抑制浓度(IC50), SARS-CoV-2假病毒中和试验 (VeroE6, luciferase) [2] [µg/mL]
B1 | 7.5 | 0.005
B2 | 13 | 1.91
